Data from publication PMC10501992, “How Pol α-primase is targeted to replisomes to prime eukaryotic DNA replication” (Molecular Cell, 2023).
Each block holds one binder with its values, some of them ahead of it.

What was measured:
Test in all cases: cryo-EM structure; human replisome: 150 nM CMG on fork DNA (60 nt or 15 nt 5′ flap) with 1.5-fold molar excess of AND-1, TIMELESS-TIPIN, CLASPIN and Pol α-primase; 25 mM HEPES-NaOH pH 7.6, 150 mM NaOAc, 0.5 mM TCEP, 500 μM AMP-PNP, 10 mM Mg(OAc)2, on ice; 10-30% glycerol gradient with glutaraldehyde and BS3 cross-linkers
Settings in all cases: both partners purified
[1] = molecular target: T1, PRIM2 (human primase accessory subunit) (human, UniProt P49643 1-509)
T1 construct: PRIM2, human; modelled residues 1-5 (N terminus) and 17-252 (NTD); stood in the assay as a subunit of m18; also called PRIM2NTD; PRIM2_(Nterm)
T1 sequence: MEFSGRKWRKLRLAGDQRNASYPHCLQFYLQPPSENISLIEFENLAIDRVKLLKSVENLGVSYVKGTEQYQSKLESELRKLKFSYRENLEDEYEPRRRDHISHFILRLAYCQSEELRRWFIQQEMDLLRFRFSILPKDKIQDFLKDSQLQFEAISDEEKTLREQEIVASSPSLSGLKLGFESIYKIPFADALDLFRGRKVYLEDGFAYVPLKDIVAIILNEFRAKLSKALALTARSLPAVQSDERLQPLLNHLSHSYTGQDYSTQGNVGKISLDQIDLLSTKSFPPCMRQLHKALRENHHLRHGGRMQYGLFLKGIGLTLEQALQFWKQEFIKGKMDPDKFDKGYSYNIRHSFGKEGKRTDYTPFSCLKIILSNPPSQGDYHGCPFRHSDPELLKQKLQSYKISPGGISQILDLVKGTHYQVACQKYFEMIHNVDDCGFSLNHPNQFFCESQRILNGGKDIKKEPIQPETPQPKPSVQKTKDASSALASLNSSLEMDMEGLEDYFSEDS

[2] = molecular target: T2, human CMG (CDC45-MCM-GINS) replicative helicase (human, UniProt O75419 1-566; P49736 1-904; P25205 1-808; P33991 1-863; P33992 1-734; Q14566 …)
T2 construct: CDC45, human; MCM2, human; MCM3, human; MCM4, human; MCM5, human; MCM6, human; MCM7, human; PSF1, subunit of GINS, human; PSF2, subunit of GINS, human; PSF3, subunit of GINS, human; SLD5, subunit of GINS, human; the subunits are named in the methods for the MCM3-4A form, which was made as the wild type; copies: + + + + + + + + + +

[3] = molecular target: T3, POLA1 (human Pol α catalytic subunit) (human, UniProt P09884 1-1462)
T3 construct: POLA1, human; modelled residues 1279-1445 and 1448-1458 (CTD); stood in the assay as a subunit of m18; also called POLA1CTD; POLA1_(exo-cat)
T3 sequence: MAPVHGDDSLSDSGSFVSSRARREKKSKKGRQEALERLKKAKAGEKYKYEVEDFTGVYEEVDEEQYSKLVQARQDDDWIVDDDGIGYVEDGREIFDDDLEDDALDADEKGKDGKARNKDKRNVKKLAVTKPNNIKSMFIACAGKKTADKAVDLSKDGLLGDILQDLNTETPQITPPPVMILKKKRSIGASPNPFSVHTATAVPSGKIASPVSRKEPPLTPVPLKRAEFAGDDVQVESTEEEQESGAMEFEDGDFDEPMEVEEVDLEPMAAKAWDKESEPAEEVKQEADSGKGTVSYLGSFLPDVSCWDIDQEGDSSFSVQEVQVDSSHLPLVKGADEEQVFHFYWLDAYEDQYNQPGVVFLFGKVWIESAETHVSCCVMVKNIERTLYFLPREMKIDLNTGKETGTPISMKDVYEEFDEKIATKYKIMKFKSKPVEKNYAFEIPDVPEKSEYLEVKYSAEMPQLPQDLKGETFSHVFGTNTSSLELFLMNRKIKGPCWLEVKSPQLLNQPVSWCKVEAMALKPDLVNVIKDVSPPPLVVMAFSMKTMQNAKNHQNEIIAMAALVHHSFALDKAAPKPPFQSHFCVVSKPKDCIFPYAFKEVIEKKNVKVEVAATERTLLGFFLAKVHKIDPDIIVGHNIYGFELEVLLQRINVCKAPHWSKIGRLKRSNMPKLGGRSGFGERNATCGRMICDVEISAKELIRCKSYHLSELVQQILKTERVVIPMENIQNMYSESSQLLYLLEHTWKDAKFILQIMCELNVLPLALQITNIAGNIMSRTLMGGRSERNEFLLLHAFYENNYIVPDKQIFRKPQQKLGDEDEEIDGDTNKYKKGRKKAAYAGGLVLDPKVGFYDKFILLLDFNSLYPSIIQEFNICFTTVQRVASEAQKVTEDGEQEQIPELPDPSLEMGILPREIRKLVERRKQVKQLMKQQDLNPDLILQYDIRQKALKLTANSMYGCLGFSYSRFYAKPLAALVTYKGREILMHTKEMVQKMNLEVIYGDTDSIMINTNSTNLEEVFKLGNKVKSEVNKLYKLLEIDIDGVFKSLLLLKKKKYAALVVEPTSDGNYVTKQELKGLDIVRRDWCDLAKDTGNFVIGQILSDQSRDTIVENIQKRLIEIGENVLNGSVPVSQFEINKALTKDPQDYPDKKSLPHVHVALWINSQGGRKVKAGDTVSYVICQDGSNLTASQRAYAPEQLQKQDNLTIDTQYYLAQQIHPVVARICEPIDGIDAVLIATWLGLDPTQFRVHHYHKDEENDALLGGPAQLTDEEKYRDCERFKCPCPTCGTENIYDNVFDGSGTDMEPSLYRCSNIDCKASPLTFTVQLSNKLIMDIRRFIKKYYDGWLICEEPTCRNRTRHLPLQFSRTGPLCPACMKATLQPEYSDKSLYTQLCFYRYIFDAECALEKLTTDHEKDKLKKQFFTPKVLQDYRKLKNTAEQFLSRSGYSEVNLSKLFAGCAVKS

- binding result [1]: binds
B1: PRIM1 (human primase catalytic subunit) (natural protein)
chain: METFDPTELPELLKLYYRRLFPYSQYYRWLNYGGVIKNYFQHREFSFTLKDDIYIRYQSFNNQSDLEKEMQKMNPYKIDIGAVYSHRPNQHNTVKLGAFQAQEKELVFDIDMTDYDDVRRCCSSADICPKCWTLMTMAIRIIDRALKEDFGFKHRLWVYSGRRGVHCWVCDESVRKLSSAVRSGIVEYLSLVKGGQDVKKKVHLSEKIHPFIRKSINIIKKYFEEYALVNQDILENKESWDKILALVPETIHDELQQSFQKSHNSLQRWEHLKKVASRYQNNIKNDKYGPWLEWEIMLQYCFPRLDINVSKGINHLLKSPFSVHPKTGRISVPIDLQKVDQFDPFTVPTISFICRELDAISTNEEEKEENEAESDVKHRTRDYKKTSLAPYVKVFEHFLENLDKSRKGELLKKSDLQKDF
notes: PRIM1, human; modelled residues 9-349 and 386-408; stood in the assay as a subunit of m18

- binding result [2]: binds
B2: TIMELESS-TIPIN (human) (complex)
chain 1: MDLHMMNCELLATCSALGYLEGDTYHKEPDCLESVKDLIRYLRHEDETRDVRQQLGAAQILQSDLLPILTQHHQDKPLFDAVIRLMVNLTQPALLCFGNLPKEPSFRHHFLQVLTYLQAYKEAFASEKAFGVLSETLYELLQLGWEERQEEDNLLIERILLLVRNILHVPADLDQEKKIDDDASAHDQLLWAIHLSGLDDLLLFLASSSAEEQWSLHVLEIVSLMFRDQNPEQLAGVGQGRLAQERSADFAELEVLRQREMAEKKTRALQRGNRHSRFGGSYIVQGLKSIGERDLIFHKGLHNLRNYSSDLGKQPKKVPKRRQAARELSIQRRSALNVRLFLRDFCSEFLENCYNRLMGSVKDHLLREKAQQHDETYYMWALAFFMAFNRAASFRPGLVSETLSVRTFHFIEQNLTNYYEMMLTDRKEAASWARRMHLALKAYQELLATVNEMDISPDEAVRESSRIIKNNIFYVMEYRELFLALFRKFDERCQPRSFLRDLVETTHLFLKMLERFCRSRGNLVVQNKQKKRRKKKKKVLDQAIVSGNVPSSPEEVEAVWPALAEQLQCCAQNSELSMDSVVPFDAASEVPVEEQRAEAMVRIQDCLLAGQAPQALTLLRSAREVWPEGDVFGSQDISPEEEIQLLKQILSAPLPRQQGPEERGAEEEEEEEEEEEEELQVVQVSEKEFNFLDYLKRFACSTVVRAYVLLLRSYQQNSAHTNHCIVKMLHRLAHDLKMEALLFQLSVFCLFNRLLSDPAAGAYKELVTFAKYILGKFFALAAVNQKAFVELLFWKNTAVVREMTEGYGSLDDRSSSRRAPTWSPEEEAHLRELYLANKDVEGQDVVEAILAHLNTVPRTRKQIIHHLVQMGLADSVKDFQRKGTHIVLWTGDQELELQRLFEEFRDSDDVLGHIMKNITAKRSRARIVDKLLALGLVAERRELYKKRQKKLASSILPNGAESLKDFCQEDLEEEENLPEEDSEEEEEGGSEAEQVQGSLVLSNENLGQSLHQEGFSIPLLWLQNCLIRAADDREEDGCSQAVPLVPLTEENEEAMENEQFQQLLRKLGVRPPASGQETFWRIPAKLSPTQLRRAAASLSQPEEEQKLQPELQPKVPGEQGSDEEHCKEHRAQALRALLLAHKKKAGLASPEEEDAVGKEPLKAAPKKRQLLDSDEEQEEDEGRNRAPELGAPGIQKKKRYQIEDDEDD
chain 2: MLEPQENGVIDLPDYEHVEDETFPPFPPPASPERQDGEGTEPDEESGNGAPVRVPPKRTVKRNIPKLDAQRLISERGLPALRHVFDKAKFKGKGHEAEDLKMLIRHMEHWAHRLFPKLQFEDFIDRVEYLGSKKEVQTCLKRIRLDLPILHEDFVSNNDEVAENNEHDVTSTELDPFLTNLSESEMFASELSRSLTEEQQQRIERNKQLALERRQAKLLSNSQTLGNDMLMNTPRAHTVEEVNTDEDQKEESNGLNEDILDNPCNDAIANTLNEEETLLDQSFKNVQQQLDATSRNITEAR
notes: TIPIN, human; source: purified (Strep-Tactin XT resin, TEV protease, HiTrap Q HP, Superdex 200)

- binding result [3]: binds
B3: POLA2 (human Pol α accessory subunit) (natural protein)
chain: MSASAQQLAEELQIFGLDCEEALIEKLVELCVQYGQNEEGMVGELIAFCTSTHKVGLTSEILNSFEHEFLSKRLSKARHSTCKDSGHAGARDIVSIQELIEVEEEEEILLNSYTTPSKGSQKRAISTPETPLTKRSVSTRSPHQLLSPSSFSPSATPSQKYNSRSNRGEVVTSFGLAQGVSWSGRGGAGNISLKVLGCPEALTGSYKSMFQKLPDIREVLTCKIEELGSELKEHYKIEAFTPLLAPAQEPVTLLGQIGCDSNGKLNNKSVILEGDREHSSGAQIPVDLSELKEYSLFPGQVVIMEGINTTGRKLVATKLYEGVPLPFYQPTEEDADFEQSMVLVACGPYTTSDSITYDPLLDLIAVINHDRPDVCILFGPFLDAKHEQVENCLLTSPFEDIFKQCLRTIIEGTRSSGSHLVFVPSLRDVHHEPVYPQPPFSYSDLSREDKKQVQFVSEPCSLSINGVIFGLTSTDLLFHLGAEEISSSSGTSDRFSRILKHILTQRSYYPLYPPQEDMAIDYESFYVYAQLPVTPDVLIIPSELRYFVKDVLGCVCVNPGRLTKGQVGGTFARLYLRRPAADGAERQSPCIAVQVVRI
notes: POLA2, human; stood in the assay as a subunit of m18
